Data from patent US20220010021A1 (Sanofi, published 2022).

T1: human beta-Klotho (KLB) (human, UniProt Q86Z14 53-997)
T1 construct: also called human KLB
T1 sequence (looked up): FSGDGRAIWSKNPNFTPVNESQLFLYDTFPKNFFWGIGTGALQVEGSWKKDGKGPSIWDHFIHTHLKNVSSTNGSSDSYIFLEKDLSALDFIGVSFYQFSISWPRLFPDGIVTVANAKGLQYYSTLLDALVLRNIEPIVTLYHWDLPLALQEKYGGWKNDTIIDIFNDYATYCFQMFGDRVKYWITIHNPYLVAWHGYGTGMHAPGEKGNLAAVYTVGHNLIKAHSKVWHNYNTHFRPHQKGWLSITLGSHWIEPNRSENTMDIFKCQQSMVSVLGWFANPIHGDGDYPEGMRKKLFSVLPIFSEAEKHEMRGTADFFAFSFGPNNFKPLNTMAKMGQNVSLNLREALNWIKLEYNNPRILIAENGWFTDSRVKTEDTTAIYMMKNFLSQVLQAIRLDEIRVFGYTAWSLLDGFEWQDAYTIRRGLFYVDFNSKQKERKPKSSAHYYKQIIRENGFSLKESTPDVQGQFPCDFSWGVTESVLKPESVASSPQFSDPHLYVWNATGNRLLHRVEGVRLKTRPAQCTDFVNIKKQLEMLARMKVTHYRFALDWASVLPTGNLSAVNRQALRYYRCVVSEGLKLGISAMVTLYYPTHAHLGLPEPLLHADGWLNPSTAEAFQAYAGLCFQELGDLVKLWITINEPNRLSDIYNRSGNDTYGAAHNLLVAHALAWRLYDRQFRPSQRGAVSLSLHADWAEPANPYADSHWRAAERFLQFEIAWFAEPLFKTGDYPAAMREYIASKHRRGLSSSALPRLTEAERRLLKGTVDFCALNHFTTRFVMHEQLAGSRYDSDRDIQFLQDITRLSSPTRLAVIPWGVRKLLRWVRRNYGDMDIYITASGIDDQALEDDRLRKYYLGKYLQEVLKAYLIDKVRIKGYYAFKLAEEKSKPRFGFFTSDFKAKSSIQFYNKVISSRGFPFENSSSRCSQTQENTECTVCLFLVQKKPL


Experiments:
human beta-Klotho (KLB) = molecular target: T1, human beta-Klotho (KLB); assay: BLI off-rate screen (Octet), Ab captured via Fc;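 also: antibody supernatants applied at 25 µg/mL, dissociation monitored over 1800 s in D-PBS with 0.1% BSA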
[1] = molecular target: human FGFR1c/KLB cell surface receptor complex on iLite FGF21 reporter cells (human, UniProt P11362 22-822; Q86Z14 1-1044); assay: cell-based or functional assay; as to Mean E max (%): reference of the scale not given here
Chain of human FGFR1c/KLB cell surface receptor complex on iLite FGF21 reporter cells (P11362 22-822, chain 1 of 2): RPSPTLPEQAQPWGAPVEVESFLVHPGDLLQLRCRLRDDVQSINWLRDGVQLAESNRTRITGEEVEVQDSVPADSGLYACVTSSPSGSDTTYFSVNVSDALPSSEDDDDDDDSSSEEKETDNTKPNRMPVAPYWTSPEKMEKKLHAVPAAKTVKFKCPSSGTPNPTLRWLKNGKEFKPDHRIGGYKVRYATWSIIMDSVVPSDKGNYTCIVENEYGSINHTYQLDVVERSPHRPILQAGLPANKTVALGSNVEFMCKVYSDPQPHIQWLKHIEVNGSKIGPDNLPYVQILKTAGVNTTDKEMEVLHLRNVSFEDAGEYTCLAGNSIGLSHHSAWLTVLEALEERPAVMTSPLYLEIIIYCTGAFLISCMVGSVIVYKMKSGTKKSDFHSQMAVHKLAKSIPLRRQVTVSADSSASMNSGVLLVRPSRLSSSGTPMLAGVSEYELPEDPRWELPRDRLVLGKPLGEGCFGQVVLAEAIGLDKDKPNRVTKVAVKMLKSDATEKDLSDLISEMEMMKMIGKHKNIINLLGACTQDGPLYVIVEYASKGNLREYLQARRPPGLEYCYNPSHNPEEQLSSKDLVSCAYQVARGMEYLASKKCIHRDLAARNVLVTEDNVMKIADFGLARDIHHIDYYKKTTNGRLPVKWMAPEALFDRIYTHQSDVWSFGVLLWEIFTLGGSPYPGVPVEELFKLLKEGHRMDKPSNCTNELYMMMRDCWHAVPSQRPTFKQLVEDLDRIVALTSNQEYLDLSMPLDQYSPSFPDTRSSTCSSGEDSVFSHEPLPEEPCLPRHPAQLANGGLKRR
Chain of human FGFR1c/KLB cell surface receptor complex on iLite FGF21 reporter cells (Q86Z14 whole entry, chain 2 of 2): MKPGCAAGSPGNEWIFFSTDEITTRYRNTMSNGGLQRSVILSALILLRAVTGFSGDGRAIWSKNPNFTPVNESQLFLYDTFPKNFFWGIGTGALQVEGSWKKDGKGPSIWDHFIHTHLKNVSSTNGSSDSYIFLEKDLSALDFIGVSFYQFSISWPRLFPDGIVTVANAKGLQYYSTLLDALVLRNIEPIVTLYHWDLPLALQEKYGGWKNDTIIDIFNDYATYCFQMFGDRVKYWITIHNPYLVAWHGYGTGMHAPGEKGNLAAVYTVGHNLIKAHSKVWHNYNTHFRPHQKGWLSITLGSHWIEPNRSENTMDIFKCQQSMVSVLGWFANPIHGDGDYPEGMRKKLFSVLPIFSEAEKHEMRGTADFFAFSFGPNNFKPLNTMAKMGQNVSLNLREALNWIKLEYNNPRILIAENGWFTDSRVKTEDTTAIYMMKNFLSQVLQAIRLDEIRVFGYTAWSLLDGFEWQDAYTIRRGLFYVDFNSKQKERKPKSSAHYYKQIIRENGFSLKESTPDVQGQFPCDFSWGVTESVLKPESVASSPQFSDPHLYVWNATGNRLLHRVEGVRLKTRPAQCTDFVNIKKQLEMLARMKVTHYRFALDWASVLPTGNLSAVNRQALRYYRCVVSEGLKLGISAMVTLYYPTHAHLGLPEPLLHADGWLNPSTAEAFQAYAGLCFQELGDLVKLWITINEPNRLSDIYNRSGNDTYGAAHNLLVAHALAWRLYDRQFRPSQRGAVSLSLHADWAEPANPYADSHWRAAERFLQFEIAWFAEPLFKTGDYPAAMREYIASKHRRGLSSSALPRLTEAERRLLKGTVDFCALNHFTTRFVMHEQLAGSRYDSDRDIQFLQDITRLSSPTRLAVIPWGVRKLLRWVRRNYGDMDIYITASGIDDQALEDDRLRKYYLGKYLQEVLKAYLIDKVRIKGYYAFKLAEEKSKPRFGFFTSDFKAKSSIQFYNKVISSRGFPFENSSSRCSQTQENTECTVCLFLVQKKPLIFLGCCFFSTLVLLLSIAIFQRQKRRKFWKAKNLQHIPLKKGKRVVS

| Binder | koff (human beta-Klotho (KLB)) | Mean E max (%) [1] | Mean EC50 [1] |
| --- | --- | --- | --- |
| 16H7 variant, light chain N26W (antibody, IgG4, V domains shown, IgG4 backbone; copies: 2 + 2) VH: not shown VL: SYVLTQPPSVSVAPGQTARITCGGNWIGSESVHWYQQKPGQAPVLVVYDDSDRPSGIPERFSGSNSGNTATLTISRVEAGDEADYYCQVWDGNSDHVVFGGGTKLTVLG | 6.7e-05 s⁻¹ | 105% | 129 pM |
| 16H7 variant, light chain N26Y (antibody, human IgG4 S228P, lambda, V domains shown, IgG4 backbone) VH: not shown VL: SYVLTQPPSVSVAPGQTARITCGGNYIGSESVHWYQQKPGQAPVLVVYDDSDRPSGIPERFSGSNSGNTATLTISRVEAGDEADYYCQVWDGNSDHVVFGGGTKLTVLG | 3.7e-05 s⁻¹ | 110% | 124 pM |
| 16H7 variant, light chain P54C (antibody, human IgG4 S228P, lambda, V domains shown, IgG4 backbone) VH: not shown VL: SYVLTQPPSVSVAPGQTARITCGGNNIGSESVHWYQQKPGQAPVLVVYDDSDRCSGIPERFSGSNSGNTATLTISRVEAGDEADYYCQVWDGNSDHVVFGGGTKLTVLG | 0.00012 s⁻¹ | 100% | 116 pM |
| 16H7 variant, light chain P54D (antibody, human IgG4 S228P, lambda, V domains shown, IgG4 backbone) VH: not shown VL: SYVLTQPPSVSVAPGQTARITCGGNNIGSESVHWYQQKPGQAPVLVVYDDSDRDSGIPERFSGSNSGNTATLTISRVEAGDEADYYCQVWDGNSDHVVFGGGTKLTVLG | 0.00028 s⁻¹ | 96% | 115 pM |
| 16H7 variant, light chain P54F (antibody, human IgG4 S228P, lambda, V domains shown, IgG4 backbone) VH: not shown VL: SYVLTQPPSVSVAPGQTARITCGGNNIGSESVHWYQQKPGQAPVLVVYDDSDRFSGIPERFSGSNSGNTATLTISRVEAGDEADYYCQVWDGNSDHVVFGGGTKLTVLG | 0.00012 s⁻¹ | 105% | 143 pM |
| 16H7 variant, light chain P54G (antibody, human IgG4 S228P, lambda, V domains shown, IgG4 backbone) VH: not shown VL: SYVLTQPPSVSVAPGQTARITCGGNNIGSESVHWYQQKPGQAPVLVVYDDSDRGSGIPERFSGSNSGNTATLTISRVEAGDEADYYCQVWDGNSDHVVFGGGTKLTVLG | 5.1e-05 s⁻¹ | 114% | 141 pM |
| 16H7 variant, light chain P54H (antibody, human IgG4 S228P, lambda, V domains shown, IgG4 backbone) VH: not shown VL: SYVLTQPPSVSVAPGQTARITCGGNNIGSESVHWYQQKPGQAPVLVVYDDSDRHSGIPERFSGSNSGNTATLTISRVEAGDEADYYCQVWDGNSDHVVFGGGTKLTVLG | 0.00014 s⁻¹ | 100% | 111 pM |
| 16H7 variant, light chain P54I (antibody, human IgG4 S228P, lambda, V domains shown, IgG4 backbone) VH: not shown VL: SYVLTQPPSVSVAPGQTARITCGGNNIGSESVHWYQQKPGQAPVLVVYDDSDRISGIPERFSGSNSGNTATLTISRVEAGDEADYYCQVWDGNSDHVVFGGGTKLTVLG | 3.5e-05 s⁻¹ | 112% | 115 pM |
| 16H7 variant, light chain P54K (antibody, human IgG4 S228P, lambda, V domains shown, IgG4 backbone) VH: not shown VL: SYVLTQPPSVSVAPGQTARITCGGNNIGSESVHWYQQKPGQAPVLVVYDDSDRKSGIPERFSGSNSGNTATLTISRVEAGDEADYYCQVWDGNSDHVVFGGGTKLTVLG | 0.00016 s⁻¹ | 100% | 131 pM |
| 16H7 variant, light chain P54L (antibody, human IgG4 S228P, lambda, V domains shown, IgG4 backbone) VH: not shown VL: SYVLTQPPSVSVAPGQTARITCGGNNIGSESVHWYQQKPGQAPVLVVYDDSDRLSGIPERFSGSNSGNTATLTISRVEAGDEADYYCQVWDGNSDHVVFGGGTKLTVLG | 9.6e-05 s⁻¹ | 108% | 133 pM |
| 16H7 variant, light chain P54M (antibody, human IgG4 S228P, lambda, V domains shown, IgG4 backbone) VH: not shown VL: SYVLTQPPSVSVAPGQTARITCGGNNIGSESVHWYQQKPGQAPVLVVYDDSDRMSGIPERFSGSNSGNTATLTISRVEAGDEADYYCQVWDGNSDHVVFGGGTKLTVLG | 3.2e-05 s⁻¹ | 98% | 87 pM |
| 16H7 variant, light chain P54N (antibody, human IgG4 S228P, lambda, V domains shown, IgG4 backbone) VH: not shown VL: SYVLTQPPSVSVAPGQTARITCGGNNIGSESVHWYQQKPGQAPVLVVYDDSDRNSGIPERFSGSNSGNTATLTISRVEAGDEADYYCQVWDGNSDHVVFGGGTKLTVLG | 0.00014 s⁻¹ | 105% | 150 pM |
| 16H7 variant, light chain P54R (antibody, human IgG4 S228P, lambda, V domains shown, IgG4 backbone) VH: not shown VL: SYVLTQPPSVSVAPGQTARITCGGNNIGSESVHWYQQKPGQAPVLVVYDDSDRRSGIPERFSGSNSGNTATLTISRVEAGDEADYYCQVWDGNSDHVVFGGGTKLTVLG | 0.00011 s⁻¹ | 104% | 111 pM |
| 16H7 variant, light chain P54S (antibody, human IgG4 S228P, lambda, V domains shown, IgG4 backbone) VH: not shown VL: SYVLTQPPSVSVAPGQTARITCGGNNIGSESVHWYQQKPGQAPVLVVYDDSDRSSGIPERFSGSNSGNTATLTISRVEAGDEADYYCQVWDGNSDHVVFGGGTKLTVLG | 7.9e-05 s⁻¹ | 102% | 103 pM |
| 16H7 variant, light chain P54T (antibody, human IgG4 S228P, lambda, V domains shown, IgG4 backbone) VH: not shown VL: SYVLTQPPSVSVAPGQTARITCGGNNIGSESVHWYQQKPGQAPVLVVYDDSDRTSGIPERFSGSNSGNTATLTISRVEAGDEADYYCQVWDGNSDHVVFGGGTKLTVLG | 0.00018 s⁻¹ | 108% | 113 pM |
| 16H7 variant, light chain P54V (antibody, human IgG4 S228P, lambda, V domains shown, IgG4 backbone) VH: not shown VL: SYVLTQPPSVSVAPGQTARITCGGNNIGSESVHWYQQKPGQAPVLVVYDDSDRVSGIPERFSGSNSGNTATLTISRVEAGDEADYYCQVWDGNSDHVVFGGGTKLTVLG | 4.1e-05 s⁻¹ | 109% | 110 pM |
| 16H7 variant, light chain P54W (antibody, human IgG4 S228P, lambda, V domains shown, IgG4 backbone) VH: not shown VL: SYVLTQPPSVSVAPGQTARITCGGNNIGSESVHWYQQKPGQAPVLVVYDDSDRWSGIPERFSGSNSGNTATLTISRVEAGDEADYYCQVWDGNSDHVVFGGGTKLTVLG | 0.00017 s⁻¹ | 98% | 91 pM |
| 16H7 variant, light chain P54Y (antibody, human IgG4 S228P, lambda, V domains shown, IgG4 backbone) VH: not shown VL: SYVLTQPPSVSVAPGQTARITCGGNNIGSESVHWYQQKPGQAPVLVVYDDSDRYSGIPERFSGSNSGNTATLTISRVEAGDEADYYCQVWDGNSDHVVFGGGTKLTVLG | 8.3e-05 s⁻¹ | 110% | 150 pM |
| 16H7 variant, light chain Q88A (antibody, human IgG4 S228P, lambda, V domains shown, IgG4 backbone) VH: not shown VL: SYVLTQPPSVSVAPGQTARITCGGNNIGSESVHWYQQKPGQAPVLVVYDDSDRPSGIPERFSGSNSGNTATLTISRVEAGDEADYYCAVWDGNSDHVVFGGGTKLTVLG | 0.00011 s⁻¹ | 108% | 133 pM |
| 16H7 variant, light chain Q88G (antibody, human IgG4 S228P, lambda, V domains shown, IgG4 backbone) VH: not shown VL: SYVLTQPPSVSVAPGQTARITCGGNNIGSESVHWYQQKPGQAPVLVVYDDSDRPSGIPERFSGSNSGNTATLTISRVEAGDEADYYCGVWDGNSDHVVFGGGTKLTVLG | 0.00017 s⁻¹ | 110% | 129 pM |
| 16H7 variant, light chain Q88L (antibody, IgG4, V domains shown, IgG4 backbone; copies: 2 + 2) VH: not shown VL: SYVLTQPPSVSVAPGQTARITCGGNNIGSESVHWYQQKPGQAPVLVVYDDSDRPSGIPERFSGSNSGNTATLTISRVEAGDEADYYCLVWDGNSDHVVFGGGTKLTVLG | 9.9e-05 s⁻¹ | 107% | 134 pM |
| 16H7 variant, light chain Q88M (antibody, IgG4, V domains shown, IgG4 backbone; copies: 2 + 2) VH: not shown VL: SYVLTQPPSVSVAPGQTARITCGGNNIGSESVHWYQQKPGQAPVLVVYDDSDRPSGIPERFSGSNSGNTATLTISRVEAGDEADYYCMVWDGNSDHVVFGGGTKLTVLG | 9.9e-05 s⁻¹ | 90% | 104 pM |
| 16H7 variant, light chain R53A (antibody, human IgG4 S228P, lambda, V domains shown, IgG4 backbone) VH: not shown VL: SYVLTQPPSVSVAPGQTARITCGGNNIGSESVHWYQQKPGQAPVLVVYDDSDAPSGIPERFSGSNSGNTATLTISRVEAGDEADYYCQVWDGNSDHVVFGGGTKLTVLG | 0.0002 s⁻¹ | 89% | 132 pM |
| 16H7 variant, light chain R53C (antibody, human IgG4 S228P, lambda, V domains shown, IgG4 backbone) VH: not shown VL: SYVLTQPPSVSVAPGQTARITCGGNNIGSESVHWYQQKPGQAPVLVVYDDSDCPSGIPERFSGSNSGNTATLTISRVEAGDEADYYCQVWDGNSDHVVFGGGTKLTVLG | 0.00044 s⁻¹ | 107% | 147 pM |
| 16H7 variant, light chain R53H (antibody, human IgG4 S228P, lambda, V domains shown, IgG4 backbone) VH: not shown VL: SYVLTQPPSVSVAPGQTARITCGGNNIGSESVHWYQQKPGQAPVLVVYDDSDHPSGIPERFSGSNSGNTATLTISRVEAGDEADYYCQVWDGNSDHVVFGGGTKLTVLG | 0.00015 s⁻¹ | 103% | 153 pM |
| 16H7 variant, light chain R53I (antibody, human IgG4 S228P, lambda, V domains shown, IgG4 backbone) VH: not shown VL: SYVLTQPPSVSVAPGQTARITCGGNNIGSESVHWYQQKPGQAPVLVVYDDSDIPSGIPERFSGSNSGNTATLTISRVEAGDEADYYCQVWDGNSDHVVFGGGTKLTVLG | 1.7e-05 s⁻¹ | 100% | 151 pM |
